Measurements: patent US20100216663A1

Target: human IgE (human) (UniProt P01854)
Assay: Biacore, human IgE on CM5 chip, sample protein in flow

Chain of human IgE (human) (P01854 other isoform, or with tags, fused parts or gaps): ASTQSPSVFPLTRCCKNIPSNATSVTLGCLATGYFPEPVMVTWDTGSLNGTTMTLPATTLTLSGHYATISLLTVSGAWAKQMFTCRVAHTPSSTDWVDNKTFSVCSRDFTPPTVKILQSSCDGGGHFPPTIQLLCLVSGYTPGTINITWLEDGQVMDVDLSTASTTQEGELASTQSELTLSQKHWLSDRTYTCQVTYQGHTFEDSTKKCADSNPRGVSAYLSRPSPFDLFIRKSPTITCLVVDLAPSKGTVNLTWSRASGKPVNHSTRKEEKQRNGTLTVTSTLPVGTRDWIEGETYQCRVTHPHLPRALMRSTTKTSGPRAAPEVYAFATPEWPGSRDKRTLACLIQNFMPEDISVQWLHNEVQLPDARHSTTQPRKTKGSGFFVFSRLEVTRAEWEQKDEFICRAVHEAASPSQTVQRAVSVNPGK

Substance: recombinant human FcERI protein (from UniProt P12319 26-205) (receptor)
- Kd: 450 nM
